Source: patent US20130330342A1 (CENTRE NATIONAL DE LA RECHERCHE SCIENTIFIQUE CNRS, published 2013)

Target: T1, CD8-Stop (UniProt P01732 22-203, limits assumed)
T1 construct: domain: CD8 receptor devoid of cytoplasmic domain; Control expressed in HeLa or 293T cells; also called CD8 protein devoid of cytoplasmic domain; control CD8-Stop protein
Assay: co-immunoprecipitation from 293T cells (anti-CD8 IP, anti-c-myc blot)
Experimental: The direct recognition of Nef by sdAb Nef19 was explored at the cell level by means of coimmuno-precipitation experiments. […] These constructs have been previously described (Janvier et al., 2003a,b; Madrid et al., 2005). The same type of experiment was also carried out on cells coexpressing the sdAb and the CD8 protein devoid of cytoplasmic domain (CD8-Stop) used as a control. 24 h after transfection, the cells were lyzed in a buffer containing 100 mM of (NH₄)₂SO₄, 20 mM of Tris (pH 7.5), 10% of glycerol, 1% of IGEPAL and a cocktail of protease inhibitors (Roche). The cell lyzate (600 μg of total proteins) was incubated for 1 h at 4° C. with 3 μg of the anti-CD8 Ab (32M4, Santa Cruz) and 30 μl of beads coated with protein A-sepharose. The immunoprecipitates were then analyzed by immunoblotting using an anti-CD8 Ab (H160, Santa Cruz) and an anti-c-myc Ab (9E10).

T1 sequence (P01732 22-203 limits assumed): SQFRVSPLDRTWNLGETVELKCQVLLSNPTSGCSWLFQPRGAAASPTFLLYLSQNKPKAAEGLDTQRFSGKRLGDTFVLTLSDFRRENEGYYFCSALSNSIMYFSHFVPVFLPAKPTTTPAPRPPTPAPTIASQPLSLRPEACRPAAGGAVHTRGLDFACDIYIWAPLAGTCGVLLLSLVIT

B1: sdAb Nef19 (VHH)
VHH: EVQLVESGGGLVQPGGSLKLSCAASGSIFRANAMRWYRQAPGKQREWVASVISDDFTDYVDSVRGRFTISKDNAQNTVYLQMNSLKPEDTAVYYCNAQLGGVNYWGQGTQVTVSS
notes: Llama VHH from the immune library; The soluble form carries C-terminal c-myc and 6His tags and is detected with mAb 9E10; also called sdAb Nef19P; sdAb Nef19C
  binding result: no binding
